Laboratory results reported in patent US20230126796.
Where two headings read alike, the source gives them in different places.

T1: PAR4-C synthetic peptide
T1 chain: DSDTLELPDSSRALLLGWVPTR

T2: PAR4-B synthetic peptide
T2 chain: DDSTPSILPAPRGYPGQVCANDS

B1: cathepsin G (protein)
chain: IIGGRESRPHSRPYMAYLQIQSPAGQSRCGGFLVREDFVLTAAHCWGSNINVTLGAHNIQRRENTQQHITARRAIRHPQYNQRTIQNDIMLLQLSRRVRRNRNVNPVALPRAQEGLRPGTLCTVAGWGRVSMRRGTDTLREVQLRVQRDRQCLRIFGSYDPRRQICVGDRRERKAAFKGDSGGPLLCNNVAHGIVSYGKSSGVPPEVFTRVSSFLPWIRTTMRS

Key:
[1] = system: PAR4-B synthetic peptide
[2] = system: PAR4-C synthetic peptide
[3] = molecular target: T1, PAR4-C synthetic peptide
[4] = molecular target: T2, PAR4-B synthetic peptide

Molecule | proteolysis of the peptide, LC-MS/MS [1] | proteolysis of the peptide, LC-MS/MS [2] | proteolysis of the peptide, LC-MS/MS [3] | proteolysis of the peptide, LC-MS/MS [4]
alpha-thrombin | PAR4-B was cleaved by thrombin between amino acids Arg47 and Gly48 | thrombin failed to cleave PAR4-C | – | –
B1 | – | – | CatG cleavage generated several fragments, including DSDTLELPSS | little cleavage was observed with CatG
